Results taken from paper PMC7135905 (Biochemical Journal, 2020).
Read-outs that look alike come from different tables or passages of the source.

B1: CtRocCOR (RocCOR construct of the Roco protein from Chlorobium tepidum, a.a. 412-946) (domain or fragment)
chain: DNPLESPPPEIVKQGKEAVRQYFQSIEEARSKGEALVHLQEIKVHLIGDGMAGKTSLLKQLIGETFDPKESQTHGLNVVTKQAPNIKGLENDDELKECLFHFWDFGGQEIMHASHQFFMTRSSVYMLLLDSRTDSNKHYWLRHIEKYGGKSPVIVVMNKIDENPSYNIEQKKINERFPAIENRFHRISCKNGDGVESIAKSLKSAVLHPDSIYGTPLAPSWIKVKEKLVEATTAQRYLNRTEVEKICNDSGITDPGERKTLLGYLNNLGIVLYFEALDLSEIYVLDPHWVTIGVYRIINSSKTKNGHLNTSALGYILNEEQIRCDEYDPAKNNKFTYTLLEQRYLLDIMKQFELCYDEGKGLFIIPSNLPTQIDNEPEITEGEPLRFIMKYDYLPSTIIPRLMIAMQHQILDRMQWRYGMVLKSQDHEGALAKVVAETKDSTITIAIQGEPRCKREYLSIIWYEIKKINANFTNLDVKEFIPLPGHPDELVEYKELLGLEKMGRDEYVSGKLEKVFSVSKMLDSVISKEERNKER
B2: CtRocCOR L487A mutant (domain or fragment)
chain: DNPLESPPPEIVKQGKEAVRQYFQSIEEARSKGEALVHLQEIKVHLIGDGMAGKTSLLKQLIGETFDPKESQTHGANVVTKQAPNIKGLENDDELKECLFHFWDFGGQEIMHASHQFFMTRSSVYMLLLDSRTDSNKHYWLRHIEKYGGKSPVIVVMNKIDENPSYNIEQKKINERFPAIENRFHRISCKNGDGVESIAKSLKSAVLHPDSIYGTPLAPSWIKVKEKLVEATTAQRYLNRTEVEKICNDSGITDPGERKTLLGYLNNLGIVLYFEALDLSEIYVLDPHWVTIGVYRIINSSKTKNGHLNTSALGYILNEEQIRCDEYDPAKNNKFTYTLLEQRYLLDIMKQFELCYDEGKGLFIIPSNLPTQIDNEPEITEGEPLRFIMKYDYLPSTIIPRLMIAMQHQILDRMQWRYGMVLKSQDHEGALAKVVAETKDSTITIAIQGEPRCKREYLSIIWYEIKKINANFTNLDVKEFIPLPGHPDELVEYKELLGLEKMGRDEYVSGKLEKVFSVSKMLDSVISKEERNKER

What was measured:
Assay in all cases: native MS
native MS [1] = target: the molecule itself
native MS [2] = target: the molecule itself; remark: listed apart in the source
native MS [3] = target: the molecule itself; remark: listed apart in the source
native MS [4] = target: the molecule itself; remark: listed apart in the source
native MS [5] = target: the molecule itself; remark: listed apart in the source
native MS [6] = target: the molecule itself; remark: listed apart in the source

Protein	percent dimer (dimer/monomer ratio) (native MS [1]) [%]	stoichiometry N (native MS [1])	percent dimer (dimer/monomer ratio) (native MS [2]) [%]	percent dimer (dimer/monomer ratio) (native MS [3]) [%]	percent dimer (dimer/monomer ratio) (native MS [4]) [%]	percent dimer (dimer/monomer ratio) (native MS [5]) [%]	percent dimer (dimer/monomer ratio) (native MS [6]) [%]
B1	~97	2	~90	~87	~38	~26	~20
B2			~100		~85	~96	~11
